Reference: paper PMC2866327, “Designed Inhibitors of Insulin-Degrading Enzyme Regulate the Catabolism and Activity of Insulin” (PLoS ONE, 2010)
Like-named read-outs stand apart in the source and are kept apart here. Square brackets hold non-standard residues; d marks the D form. Ends that are not written are not given here. 1Nal = N[C@@H](Cc1cccc2ccccc12)C(=O)O; diphenylalanine = not defined here

How the values were obtained:
Conditions in all cases: modification not given
[1] = target: T1, insulin-degrading enzyme (recombinant human IDE) (human), P14735
[2] = target: T1, insulin-degrading enzyme (recombinant …); remark: listed apart in the source
[3] = target: T1, insulin-degrading enzyme (recombinant …); remark: listed apart in the source
[4] = target: T1, insulin-degrading enzyme (recombinant …); remark: listed apart in the source
[5] = target: T1, insulin-degrading enzyme (recombinant …); remark: listed apart in the source
[6] = target: T1, insulin-degrading enzyme (recombinant …); remark: listed apart in the source

Q: With FRY [4-(tert-butyl)-phenylalanine] as the binder, how does the Ki [1] read?
A: 16 µM

Q: How did the Ki [2] turn out when FRY [3-fluorophenylalanine] was run?
A: 7 µM

Q: For [diphenylalanine]-Arg-Tyr (reading uncertain) [diphenylalanine], which Ki [3] is on record?
A: > 500 µM

Q: How did the Ki [4] turn out when FRY [4-fluorophenylalanine] was run?
A: 7 µM

Q: [1Nal]-Arg-Tyr [1-naphthylalanine] was tested. Which Ki [5] did it give?
A: 0.7 µM

Q: [2‑benzothiophenylalanine]-Arg-Tyr [2-benzothiophenylalanine] was tested. Which Ki [6] did it give?
A: 1.1 µM
